Experimental data: patent publication US20220282217A1 (BIONTECH US, published 2022)

What was measured:
HLA-A02.01 [1] = biological target: HLA-A02.01 (human); assay: pMHC-I complex dissociation at 37 C, 125I-b2m, half-life
Method in brief: (§1)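 Biotinylated MHC-I heavy chain made in E. coli, captured on streptavidin plates and complexed with peptide and radiolabelled light chain. Dissociation started with excess unlabelled light chain at 37 °C. Stability is the half-life in hours from scintillation counts.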

HLA-B08.01 [2] = biological target: T1, HLA-B08.01 (human); assay: as above
T1 construct: As for HLA-A02.01
Method in brief: as §1

HLA-A02.01 [3] = biological target: HLA-A02.01 (human); assay: competition vs radiolabeled reference peptide on purified MHC I, gel filtration
Method: (§2) Peptides were incubated at varying concentrations with these complexes for 2 days, and the amount of remaining radiolabeled peptide bound to […] was measured using size exclusion gel-filtration.

HLA-B08.01 [4] = biological target: T1, HLA-B08.01; assay: as above
Method: as §2

HLA-A03.01 [5] = biological target: T2, HLA-A03.01 (human); assay: pMHC-I dissociation half-life, 125I-b2m
T2 construct: Purified class I MHC
Method in brief: as §1

HLA-A11.01 [6] = biological target: T3, HLA-A11.01 (human); assay: pMHC-I dissociation half-life, 125I-b2m
T3 construct: Purified class I MHC
Method in brief: as §1

HLA-A01.01 [7] = biological target: T4, HLA-A01.01 (human); assay: competition with radiolabeled reference peptide, purified MHC I
T4 construct: Purified class I MHC
Method: as §2

[8] = biological target: T5, HLA class I molecule A03.01; assay: competition with radiolabeled reference peptide on purified MHC I
T5 construct: Purified MHC class I complex; also called HLA-A03:01
Method: as §2

[9] = biological target: T5, HLA class I molecule A03.01; assay: pMHC-I dissociation assay with 125I-labeled beta2m light chain at 37 C, scintillation counts; time in hours for half of the complexes to dissociate
Method: (§3) Briefly, synthetic genes encoding biotinylated MHC-I heavy and light chains are expressed in E. coli and purified from inclusion bodies using standard methods. […] These reactions are carried out in streptavidin coated microplates to bind the biotinylated MHC-I heavy chains to the surface and allow measurement of radiolabeled light chain to monitor complex formation. Dissociation is initiated by addition of higher concentrations of unlabeled light-chain and incubation at 37° C. Stability is defined as the length of time in hours it takes for half of the complexes to dissociate, as measured by scintillation counts.

[10] = biological target: HLA-B08.01 class I MHC molecule (prepared complex) (human); assay: dissociation of peptide-MHC-I complex at 37 C, 125I-labelled b2m, scintillation
Method: as §3

HLA-B*40:02 = HLA-B*40:02 (human); assay: peptides eluted from HLA-peptide complexes by acid wash, targeted MS/MS (PRM); 293T cells transduced with GATA3 neoORF, expressing HLA-B*40:02
Method: (§4) Between 50 and 700 million of the transduced cells expressing peptides encoded by the GATA3 neoORF sequence were cultured and peptides were eluted from HLA-peptide complexes using an acid wash. Eluted peptides were then analyzed by targeted MS/MS using PRM.

HLA-A24.02 = biological target: T6, HLA-A24.02 (human); assay: competition with radiolabeled reference peptide, purified MHC I
T6 construct: Purified class I MHC
Method: as §2

HLA-A03.01 [11] = biological target: T2, HLA-A03.01; assay: as above
Method: as §2

HLA-A11.01 [12] = biological target: T3, HLA-A11.01; assay: as above
Method: as §2

HLA-A*30:02 = HLA-A*30:02 (human); assay: peptides eluted from HLA-peptide complexes by acid wash, targeted MS/MS (PRM); 293T cells transduced with GATA3 neoORF, expressing HLA-A*30:02
Method: as §4

HLA-A01.01 [13] = biological target: T7, HLA-A01.01 (human); assay: competition vs radiolabeled reference peptide on purified MHC I, gel filtration
T7 construct: As for HLA-A02.01
Method: as §2

HLA-A03.01 [14] = biological target: T8, HLA-A03.01 (human); assay: as above
T8 construct: As for HLA-A02.01
Method: as §2

[15] = biological target: HLA-B08:01 class I MHC molecule (human); assay: pMHC-I dissociation at 37 C, 125I-labeled b2m, scintillation counts
Method: as §3

HLA-B07.02 = biological target: T9, HLA-B07.02 (human); assay: competition vs radiolabeled reference peptide on purified MHC I, gel filtration
T9 construct: As for HLA-A02.01
Method: as §2

[16] = biological target: T10, HLA class I molecule A02.01; assay: competition with radiolabeled reference peptide on purified MHC I
T10 construct: Purified MHC class I complex; also called HLA-A02:01
Method: as §2

[17] = biological target: T10, HLA class I molecule A02.01; assay: pMHC-I dissociation assay with 125I-labeled beta2m light chain at 37 C, scintillation counts; time in hours for half of the complexes to dissociate
Method: as §3

[18] = biological target: T11, HLA class I molecule A24.02; assay: competition with radiolabeled reference peptide on purified MHC I
T11 construct: Purified MHC class I complex; also called HLA-A24:02
Method: as §2

[19] = biological target: T12, HLA class I molecule B07.02; assay: as above
T12 construct: Purified MHC class I complex; also called HLA-B07:02
Method: as §2

[20] = biological target: T11, HLA class I molecule A24.02; assay: pMHC-I dissociation half-life, 125I-b2m
Method in brief: as §1

[21] = biological target: T12, HLA class I molecule B07.02; assay: pMHC-I dissociation half-life, 125I-b2m
Method in brief: as §1

[22] = biological target: T10, HLA class I molecule A02.01; assay: pMHC-I dissociation half-life, 125I-b2m
Method in brief: as §1

[23] = biological target: HLA-A03:01 class I MHC molecule (human); assay: competition with a radiolabeled reference peptide for purified MHC I, gel filtration; 'Affinity (nM)'
Method: as §2

[24] = biological target: T13, HLA-A01:01 class I MHC molecule (human); assay: pMHC-I dissociation at 37 C, 125I-labeled b2m, scintillation counts
T13 construct: heavy chain biotinylated and made in E. coli in the stability assay
Method: as §3

[25] = biological target: HLA-A03:01 class I MHC molecule (human); assay: as above
Method: as §3

[26] = biological target: HLA-A11:01 class I MHC molecule (human); assay: competition with a radiolabeled reference peptide for purified MHC I, gel filtration; 'Affinity (nM)'; affinity assay, column 'Affinity (nM)'
Method: as §2

[27] = biological target: T14, HLA class I molecule B08.01; assay: pMHC-I dissociation half-life, 125I-b2m
T14 construct: Purified MHC class I complex; also called HLA-B08:01
Method in brief: as §1

B1: LATEKSRWS (peptide)
peptide: LATEKSRWS
notes: also called BRAF, V600E
HLA-A02.01 [1]
  Stability (T1/2 (h)): 0 h
HLA-B08.01 [2]
  Stability (T1/2 (h)): 0 h
HLA-A02.01 [3]
  IC50: 61000 nM
HLA-B08.01 [4]
  IC50: 37000 nM

B2: VVGACGVGK (peptide)
peptide: VVGACGVGK
notes: also called KRAS, G12C
HLA-A03.01 [5]
  Measured stability: 5 h
HLA-A11.01 [6]
  Measured stability: 10 h

B3: VVGADGVGK (peptide)
peptide: VVGADGVGK
notes: also called KRAS, G12D
HLA-A11.01 [6]
  Measured stability: 3.4 h

B4: VMSDTTYKIY (peptide)
peptide: VMSDTTYKIY
notes: also called TTK(-1)
HLA-A01.01 [7]
  IC50: 376 nM

B5: YMFLKAESK (peptide)
peptide: YMFLKAESK
notes: also called GATA3 . . ; CSNH
[8]
  IC50: 79.8 nM
[9]
  Observed MHC Stability: 0.3 h

B6: EGFR_T790M peptide IMQLMPFGCL (peptide)
peptide: IMQLMPFGCL
notes: synthetic peptide holding the EGFR T790M mutation
[10]
  Stability (half-life (hr.)): 0 h

B7: GATA3 neoORF peptide AESKIMFAT (peptide)
peptide: AESKIMFAT
HLA-B*40:02
  binding result: binds

B8: KLRSPLWIF (peptide)
peptide: KLRSPLWIF
notes: also called SMAP1(-1)
HLA-A24.02
  IC50: 828 nM

B9: KISNWSLKK (peptide)
peptide: KISNWSLKK
notes: also called SMAP1(-1)
HLA-A03.01 [11]
  IC50: 8.8 nM
HLA-A11.01 [12]
  IC50: 9.8 nM

B10: GATA3 neoORF peptide IMKPKRDGY (peptide)
peptide: IMKPKRDGY
HLA-A*30:02
  binding result: binds

B11: EGFR_T790M peptide MQLMPFGCLL (peptide)
peptide: MQLMPFGCLL
notes: as for B6
[10]
  Stability (half-life (hr.)): 0 h

B12: FLPSTLKSL (peptide)
peptide: FLPSTLKSL
notes: also called ESR1, S463P
HLA-B08.01 [2]
  Stability (T1/2 (h)): 0 h
HLA-B08.01 [4]
  IC50: 1970 nM

B13: VVVGADGVGK (peptide)
peptide: VVVGADGVGK
notes: also called KRAS, G12D
HLA-A03.01 [5]
  Measured stability: 2.3 h
HLA-A11.01 [6]
  Measured stability: 13 h

B14: VVVGAVGVGK (peptide)
peptide: VVVGAVGVGK
notes: also called KRAS, G12V
HLA-A03.01 [5]
  Measured stability: 6.7 h
HLA-A11.01 [6]
  Measured stability: 24.3 h

B15: LSFLSSWDY (peptide)
peptide: LSFLSSWDY
notes: also called C15ORF40(+1)
HLA-A01.01 [13]
  IC50: 52.9 nM

B16: CLSFLSSWDY (peptide)
peptide: CLSFLSSWDY
notes: also called C15ORF40(+1)
HLA-A03.01 [14]
  IC50: 2710 nM
HLA-A01.01 [13]
  IC50: 987 nM

B17: EGFR_T790M peptide QLIMQLMPF (peptide)
peptide: QLIMQLMPF
notes: as for B6
[10]
  Stability (half-life (hr.)): 0 h

B18: BTK_C481S peptide MANGSLLNYL (peptide)
peptide: MANGSLLNYL
[15]
  Stability (half-life (hr.)): 0 h

B19: MSVCFFFFCY (peptide)
peptide: MSVCFFFFCY
notes: also called CNOT1(-1)
HLA-A01.01 [13]
  IC50: 4370 nM

B20: VPLYGLLLEM (peptide)
peptide: VPLYGLLLEM
notes: also called ESR1, D538G
HLA-B07.02
  IC50: 27.9 nM

B21: TLQRSSLWCL (peptide)
peptide: TLQRSSLWCL
notes: also called GATA3 . . ; CSNH
[16]
  IC50: 118 nM
[17]
  Observed MHC Stability: 0.5 h

B22: ALSASNSCF (peptide)
peptide: ALSASNSCF
notes: also called FRG1B, L52S
[18]
  IC50: 16300 nM
[19]
  IC50: 684 nM
[16]
  IC50: 728 nM
[20]
  Stability (T1/2 (h)): 0.2 h
[21]
  Stability (T1/2 (h)): 0 h
[22]
  Stability (T1/2 (h)): 0.3 h

B23: EGFR_T790M peptide MQLMPFGCL (peptide)
peptide: MQLMPFGCL
notes: as for B6
[10]
  Stability (half-life (hr.)): 0 h

B24: SLKKVPALK (peptide)
peptide: SLKKVPALK
notes: also called SMAP1(-1)
HLA-A03.01 [11]
  IC50: 4.4 nM
HLA-A11.01 [12]
  IC50: 129 nM

B25: BTK, C481S peptide MANGSLLNY (peptide)
peptide: MANGSLLNY
[23]
  IC50: 35.6 nM
[24]
  Stability (half-life (hr.)): 13 min
[25]
  Stability (half-life (hr.)): 14.3 min
[26]
  IC50: 536 nM

B26: MLTGPPARV (peptide)
peptide: MLTGPPARV
notes: also called GATA3 . . ; CSNH
[16]
  IC50: 10.6 nM
[17]
  Observed MHC Stability: 5.8 h

B27: AMTTSSSQK (peptide)
peptide: AMTTSSSQK
notes: also called TGFBR2(-1)
HLA-A03.01 [11]
  IC50: 8.3 nM
HLA-A11.01 [12]
  IC50: 162 nM

B28: GATA3 neoORF peptide SIMKPKRDGY (peptide)
peptide: SIMKPKRDGY
HLA-A*30:02
  binding result: binds

B29: WLHKRGKYI (peptide)
peptide: WLHKRGKYI
notes: also called AKT1, E17K
HLA-B08.01 [2]
  Stability (T1/2 (h)): 1.3 h
HLA-B08.01 [4]
  IC50: 417 nM

B30: MSDTTYKIY (peptide)
peptide: MSDTTYKIY
notes: also called TTK(-1)
HLA-A01.01 [7]
  IC50: 10.2 nM

B31: YPAYSKDSGL (peptide)
peptide: YPAYSKDSGL
notes: also called β2M, . . ; SIRH
HLA-B07.02
  IC50: 79.5 nM

B32: EGFR_T790M peptide VQLIMQLMPF (peptide)
peptide: VQLIMQLMPF
notes: as for B6
[10]
  Stability (half-life (hr.)): 0 h

B33: SAMTTSSSQK (peptide)
peptide: SAMTTSSSQK
notes: also called TGFBR2(-1)
HLA-A03.01 [11]
  IC50: 15.7 nM
HLA-A11.01 [12]
  IC50: 15.8 nM

B34: GATA3 neoORF peptide AESKIMFATL (peptide)
peptide: AESKIMFATL
HLA-B*40:02
  binding result: binds

B35: LATEKSRWSG (peptide)
peptide: LATEKSRWSG
notes: also called BRAF, V600E
HLA-A02.01 [1]
  Stability (T1/2 (h)): 0 h
HLA-B08.01 [2]
  Stability (T1/2 (h)): 0 h
HLA-A02.01 [3]
  IC50: 23300 nM
HLA-B08.01 [4]
  IC50: 46600 nM

B36: YMANGSLLNY (peptide)
peptide: YMANGSLLNY
notes: also called BTK, C481S
HLA-A03.01 [14]
  IC50: 95.9 nM
HLA-A01.01 [13]
  IC50: 13.2 nM

B37: FQMQPLSLM (peptide)
peptide: FQMQPLSLM
notes: also called JAK1(-1)
[18]
  IC50: 14600 nM
[16]
  IC50: 553 nM
[20]
  Stability (T1/2 (h)): 0 h
[27]
  Stability (T1/2 (h)): 0 h
[21]
  Stability (T1/2 (h)): 0 h
[22]
  Stability (T1/2 (h)): 0.3 h
